Laboratory results reported in patent US20080220446A1 (published 2008).
Values belong to the binder of their own block, whether it stands above or below them.

What was measured:
[1] = target: T1, tissue-type plasminogen activator (tPA) (human, UniProt P00750 36-562); assay: ELISA, therapeutic coated on Nunc Immobilizer plate, concentration series of tPA, one-site binding fit
T1 construct: Full-length commercial tPA; also called Actilyse; Alteplase
Experimental: Plates were washed twice with Tris buffered saline pH 7.2 containing 0.1% Tween20 (TBST) and blocked with PBS containing 1% Tween20 for 1 hour at room temperature. […] Plates were washed five times with TBST and incubated with peroxidase labeled anti-mouse immunoglobulins (RAMPO; DAKOCytomation, Glostrup, Denmark) diluted 1:3000 in PBST for 30 minutes at room temperature. Plates were washed five times with PBS 0.1% Tween20, and stained with 100 μL/well of tetramethyl-benzidine (TMB) substrate (Biosource Europe, Nivelles, Belgium). The reaction was terminated with 50 μL/well of 2 M H₂SO₄ and substrate conversion was read at 450 nm on a Spectramax340 microplate reader. Curves were fitted with a one-site binding model (GraphPad Prism version 4.02 for Windows, Graphpad Software, Calif., USA) from which Kd and Bmax were determined.

[2] = target: T1, tissue-type plasminogen activator (tPA); assay: ELISA, tPA coated, concentration series of recombinant β2GPI
Experimental: (§1) Binding of β₂GPI was assessed with monoclonal antibody 2B2²².
(§2) The positive control was amyloid fibrin peptide FP13. […] C. […] Eluted fractions are analyzed on Western blot after SDS-PA electrophoresis. […] Signals are corrected for background fluorescence of CL, DXS, ThT and buffer.

[3] = target: T2, factor XII (purified human factor XII from plasma) (human, UniProt P00748 20-615); assay: ELISA, factor XII coated, concentration series of recombinant β2GPI
T2 construct: also called FXII
T2 sequence (looked up): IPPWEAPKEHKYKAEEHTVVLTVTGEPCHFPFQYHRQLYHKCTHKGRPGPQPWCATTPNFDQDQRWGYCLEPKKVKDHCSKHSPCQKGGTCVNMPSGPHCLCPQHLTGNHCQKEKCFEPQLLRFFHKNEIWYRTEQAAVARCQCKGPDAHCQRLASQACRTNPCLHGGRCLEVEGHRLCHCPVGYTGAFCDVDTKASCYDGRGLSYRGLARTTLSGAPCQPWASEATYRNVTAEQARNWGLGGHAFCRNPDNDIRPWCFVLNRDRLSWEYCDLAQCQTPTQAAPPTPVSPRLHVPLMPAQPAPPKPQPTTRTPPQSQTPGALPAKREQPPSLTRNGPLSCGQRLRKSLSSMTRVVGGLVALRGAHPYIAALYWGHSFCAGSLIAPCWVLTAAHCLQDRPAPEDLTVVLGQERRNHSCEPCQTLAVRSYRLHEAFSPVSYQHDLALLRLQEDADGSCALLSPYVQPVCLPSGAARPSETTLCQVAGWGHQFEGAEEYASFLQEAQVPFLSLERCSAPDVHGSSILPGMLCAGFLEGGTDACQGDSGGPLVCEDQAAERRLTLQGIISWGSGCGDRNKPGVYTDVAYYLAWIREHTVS

[4] = target: T2, factor XII (purified human factor XII …); assay: ELISA, factor XII immobilized, concentration series of recombinant β2GPI
Experimental: as §1, §2

[5] = target: T1, tissue-type plasminogen activator (tPA); assay: ELISA, tPA immobilized, concentration series of recombinant β2GPI
Experimental: as §1, §2

T1 sequence (P00750 36-562 limits assumed): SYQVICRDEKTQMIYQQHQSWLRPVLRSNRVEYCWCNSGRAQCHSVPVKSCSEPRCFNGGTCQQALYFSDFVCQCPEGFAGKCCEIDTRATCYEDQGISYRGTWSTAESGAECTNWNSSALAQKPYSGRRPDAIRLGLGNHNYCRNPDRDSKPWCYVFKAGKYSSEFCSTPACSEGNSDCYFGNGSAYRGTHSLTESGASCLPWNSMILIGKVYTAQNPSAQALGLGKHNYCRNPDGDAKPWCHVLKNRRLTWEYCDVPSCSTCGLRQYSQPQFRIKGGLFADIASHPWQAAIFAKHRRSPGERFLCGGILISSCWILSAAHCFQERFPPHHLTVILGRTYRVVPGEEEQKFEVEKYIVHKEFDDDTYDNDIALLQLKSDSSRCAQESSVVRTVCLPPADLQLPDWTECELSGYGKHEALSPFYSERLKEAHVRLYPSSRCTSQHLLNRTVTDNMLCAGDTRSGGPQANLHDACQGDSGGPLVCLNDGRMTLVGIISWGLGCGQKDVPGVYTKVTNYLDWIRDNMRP

Kd [1]: 230 nM
B1: human coagulation factor VIII (FVIII) (Aafact) (other)
chain 1: ATRRYYLGAVELSWDYMQSDLGELPVDARFPPRVPKSFPFNTSVVYKKTLFVEFTDHLFNIAKPRPPWMGLLGPTIQAEVYDTVVITLKNMASHPVSLHAVGVSYWKASEGAEYDDQTSQREKEDDKVFPGGSHTYVWQVLKENGPMASDPLCLTYSYLSHVDLVKDLNSGLIGALLVCREGSLAKEKTQTLHKFILLFAVFDEGKSWHSETKNSLMQDRDAASARAWPKMHTVNGYVNRSLPGLIGCHRKSVYWHVIGMGTTPEVHSIFLEGHTFLVRNHRQASLEISPITFLTAQTLLMDLGQFLLFCHISSHQHDGMEAYVKVDSCPEEPQLRMKNNEEAEDYDDDLTDSEMDVVRFDDDNSPSFIQIRSVAKKHPKTWVHYIAAEEEDWDYAPLVLAPDDRSYKSQYLNNGPQRIGRKYKKVRFMAYTDETFKTREAIQHESGILGPLLYGEVGDTLLIIFKNQASRPYNIYPHGITDVRPLYSRRLPKGVKHLKDFPILPGEIFKYKWTVTVEDGPTKSDPRCLTRYYSSFVNMERDLASGLIGPLLICYKESVDQRGNQIMSDKRNVILFSVFDENRSWYLTENIQRFLPNPAGVQLEDPEFQASNIMHSINGYVFDSLQLSVCLHEVAYWYILSIGAQTDFLSVFFSGYTFKHKMVYEDTLTLFPFSGETVFMSMENPGLWILGCHNSDFRNRGMTALLKVSSCDKNTGDYYEDSYEDISAYLLSKNNAIEPRSFSQNSRHPSTRQKQFNATTIPENDIEKTDPWFAHRTPMPKIQNVSSSDLLMLLRQSPTPHGLSLSDLQEAKYETFSDDPSPGAIDSNNSLSEMTHFRPQLHHSGDMVFTPESGLQLRLNEKLGTTAATELKKLDFKVSSTSNNLISTIPSDNLAAGTDNTSSLGPPSMPVHYDSQLDTTLFGKKSSPLTESGGPLSLSEENNDSKLLESGLMNSQESSWGKNVSSTESGRLFKGKRAHGPALLTKDNALFKVSISLLKTNKTSNNSATNRKTHIDGPSLLIENSPSVWQNILESDTEFKKVTPLIHDRMLMDKNATALRLNHMSNKTTSSKNMEMVQQKKEGPIPPDAQNPDMSFFKMLFLPESARWIQRTHGKNSLNSGQGPSPKQLVSLGPEKSVEGQNFLSEKNKVVVGKGEFTKDVGLKEMVFPSSRNLFLTNLDNLHENNTHNQEKKIQEEIEKKETLIQENVVLPQIHTVTGTKNFMKNLFLLSTRQNVEGSYDGAYAPVLQDFRSLNDSTNRTKKHTAHFSKKGEEENLEGLGNQTKQIVEKYACTTRISPNTSQQNFVTQRSKR
chain 2: EITRTTLQSDQEEIDYDDTISVEMKKEDFDIYDEDENQSPRSFQKKTRHYFIAAVERLWDYGMSSSPHVLRNRAQSGSVPQFKKVVFQEFTDGSFTQPLYRGELNEHLGLLGPYIRAEVEDNIMVTFRNQASRPYSFYSSLISYEEDQRQGAEPRKNFVKPNETKTYFWKVQHHMAPTKDEFDCKAWAYFSDVDLEKDVHSGLIGPLLVCHTNTLNPAHGRQVTVQEFALFFTIFDETKSWYFTENMERNCRAPCNIQMEDPTFKENYRFHAINGYIMDTLPGLVMAQDQRIRWYLLSMGSNENIHSIHFSGHVFTVRKKEEYKMALYNLYPGVFETVEMLPSKAGIWRVECLIGEHLHAGMSTLFLVYSNKCQTPLGMASGHIRDFQITASGQYGQWAPKLARLHYSGSINAWSTKEPFSWIKVDLLAPMIIHGIKTQGARQKFSSLYISQFIIMYSLDGKKWQTYRGNSTGTLMVFFGNVDSSGIKHNIFNPPIIARYIRLHPTHYSIRSTLRMELMGCDLNSCSMPLGMESKAISDAQITASSYFTNMFATWSPSKARLHLQGRSNAWRPQVNNPKEWLQVDFQKTMKVTGVTTQGVKSLLTSMYVKEFLISSSQDGHQWTLFFQNGKVKVFQGNQDSFTPVVNSLDPPLLTRYLRIHPQSWVHQIALRMEVLGCEAQDLY

Kd [1]: 216 nM
B2: abciximab (ReoPro) (Fab, V domains shown)
VH: EVQLQQSGTVLARPGASVKMSCEASGYTFTNYWMHWVKQRPGQGLEWIGAIYPGNSDTSYIQKFKGKAKLTAVTSTTSVYMELSSLTNEDSAVYYCTLYDGYYVFAYWGQGTLVTVSA
VL: EIVLTQSPVTLSVTPGDSVSLSCRASRDISNNLHWFQQTSHESPRLLIKYASQSMSGIPSRFSGSGSGTDFTLSINSVETEDFGMYFCQQTNSWPYTFGGGTKLEIK

Kd [2]: 51 nM
Kd [3]: 20 nM
Kd [4]: 0.9 µg/mL
Kd [5]: 2.3 µg/mL
B3: recombinant human β2-glycoprotein I (insect cells) (other, UniProt P02749 20-345, looked up)
chain: GRTCPKPDDLPFSTVVPLKTFYEPGEEITYSCKPGYVSRGGMRKFICPLTGLWPINTLKCTPRVCPFAGILENGAVRYTTFEYPNTISFSCNTGFYLNGADSAKCTEEGKWSPELPVCAPIICPPPSIPTFATLRVYKPSAGNNSLYRDTAVFECLPQHAMFGNDTITCTTHGNWTKLPECREVKCPFPSRPDNGFVNYPAKPTLYYKDKATFGCHDGYSLDGPEEIECTKLGNWSAMPSCKASCKVPVKKATVVYQGERVKIQEKFKNGMLHGDKVSFFCKNKEKKCSYTEDAQCIDGTIEVPKCFKEHSSLAFWKTDASDVKPC
notes: also called recombinant β2GPI; rβ2GPI
